Sequences and labels used below:
B1: S100A4 (metastasin), wild type (natural protein)
chain: not shown

Common to all, as to conditions: both partners purified
For experiment [1], the target named is T1, Ezrin N-ERMAD (N-terminal ERM domain, FERM domain, Met1-Lys296) (human, UniProt P15311 1-296). Nature of the experiment: fluorescence polarisation; competitive FP; 50 nM Fl-NMIIA complexed with 4 μM S100A4 dimer titrated with ezrin constructs; competition binding equation; triplicates. In general terms: Fluorescence polarisation rises when a labelled molecule tumbles more slowly, as on binding a larger partner.

Experiment [2] deals with T2, Ezrin F2 lobe of the N-ERMAD (Glu87-Glu199) (human, UniProt P15311 87-199). Described as above.
In experiment [3] the target is T3, Full-length human ezrin (human, UniProt P15311 1-586). Described as above.
For experiment [4], the target named is T4, Full-length human ezrin, phosphomimicking mutant T567D (human, UniProt P15311 1-586, Thr567Asp). The experiment is described as above.
Experiment [5] has as its target T2, Ezrin F2 lobe of the N-ERMAD …. As to the kind of experiment: other fluorescence titration; steady-state tryptophan fluorescence; 2 μM ezrin construct titrated with S100 protein; 20 mM HEPES pH 7.5, 150 mM NaCl, 0.5 mM TCEP, 1 mM CaCl2; 25°C; quadratic binding equation.
Experiment [6] deals with T1, Ezrin N-ERMAD (N-terminal ERM domain, …). The experiment is described as above.
Experiment [7] deals with T2, Ezrin F2 lobe of the N-ERMAD …. Described as above. The source holds these as a separate data set.
The target of experiment [8] is T3, Full-length human ezrin. The description is as above.
Experiment [9] concerns the target T4, Full-length human ezrin, …. Described as above.
Experiment [10] addresses T1, Ezrin N-ERMAD (N-terminal ERM domain, …). As to the kind of experiment: stopped-flow tryptophan fluorescence kinetics; 1 μM (post-mixing) N-ERMAD or F2 lobe mixed with S100A4 at different concentrations; 20 mM HEPES pH 7.5, 150 mM NaCl, 0.5 mM TCEP, 1 mM CaCl2; 25°C; Kd from amplitudes (quadratic), K1, k2, k-2 from hyperbola of kobs (induced fit).
Experiment [11] addresses T2, Ezrin F2 lobe of the N-ERMAD …. The experiment is described as above.
The target in experiment [12] is T1, Ezrin N-ERMAD (N-terminal ERM domain, …). As to the kind of experiment: other fluorescence titration; steady-state tryptophan fluorescence; 2 μM ezrin construct titrated with S100 protein; 20 mM HEPES pH 7.5, 150 mM NaCl, 0.5 mM TCEP, 1 mM CaCl2; 25°C; quadratic binding equation. The source holds these as a separate data set.
For experiment [13] the target is unchanged. As to the kind of experiment: fluorescence polarisation; direct FP; 50 nM fluorescent tracer (Fl-C-ERMAD variants or Fl-NMIIA) titrated with S100 proteins or N-ERMAD; 20 mM HEPES pH 7.5, 150 mM NaCl, 0.1 mM TCEP, 1 mM CaCl2, 0.05% Tween-20; triplicates; quadratic binding equation.
Experiment [14] has as its target B1. Described as above.
For experiment [15], the target named is B1. Nature of the experiment: fluorescence polarisation; competitive FP; 50 nM Fl-NMIIA complexed with 4 μM S100A4 dimer titrated with ezrin constructs; competition binding equation; triplicates.
The target in experiment [16] is T1, Ezrin N-ERMAD (N-terminal ERM domain, …). Nature of the experiment: circular dichroism; far-UV CD difference spectra of complexes; 10 mM Tris pH 7.5, 150 mM NaCl, 0.1 mM TCEP, 1 mM CaCl2; 15 μM N-ERMAD + 50 μM S100A4 dimer, 25 μM F2 lobe + 25 μM S100A4 dimer, 25 μM C-ERMAD + 100 μM S100A4 dimer or 30 μM N-ERMAD; BeStSel deconvolution. (In general: Circular dichroism is widely used to follow secondary structure.)

The term Kd denotes a measure of binding affinity in units of concentration. Lower therefore signals higher affinity. The stoichiometry N is the number of molecules, sites or subunits per partner or assembly. On to B1, for which the Kd in experiment [1] is 1100 nM; in experiment [2], 120 nM; in the experiment with Full-length human ezrin [3], 92100 nM; in experiment [4], 72200 nM; in experiment [6], 2200 nM; in [7], less than 100 nM. Further, the Kd with Full-length human ezrin [8] is 175000 nM; in experiment [9] it was 158000 nM; in experiment [10] it was 3900 nM; in experiment [11], 170 nM. Also, the “stoichiometry N” value in experiment [5] was found to be 1 S100A4 dimer per F2 lobe.

B2: S100P (natural protein, UniProt P25815 1-95, looked up)
chain: MTELETAMGMIIDVFSRYSGSEGSTQTLTKGELKVLMEKELPGFLQSGKDKDAVDKLLKDLDANGDAQVDFSEFIVFVAAITSACHKYFEKAGLK
Regarding B2, the Kd in [12] worked out at 1700 ± 300 nM.

B3: Fl-C-ERMAD^T567D (fluorescently labeled phosphomimetic C-ERMAD mutant) (domain or fragment, human)
chain: CKRITEAEKNERVQRQLLTLSSELSQARDENKRTHNDIIHNENMRQGRDKYKDLRQIRQGNTKQRIDEFEAL
modifications: fluorescent label on the N-terminal cysteine (Alexa Fluor 568 C5 maleimide by the methods for the C-ERMAD fragments)
notes: cysteine cloned before Lys516, carries the fluorescent label (as for the C-ERMAD); human ezrin C-ERMAD with Thr567Asp; limits are those printed for the parent C-ERMAD (Lys516-Leu586); source: E. coli Rosetta(DE3), purified, fluorescently labeled; not shown: GST, N-terminal, cleaved
Consider B3, for which, in experiment [13], the binding result is given as “binds”. The molecule further gave a Kd in [14] of 2700 nM.

B4: Fl-C-ERMAD (fluorescently labeled ezrin C-ERMAD, Cys-Lys516-Leu586) (domain or fragment, human)
chain: CKRITEAEKNERVQRQLLTLSSELSQARDENKRTHNDIIHNENMRQGRDKYKTLRQIRQGNTKQRIDEFEAL
modifications: Alexa Fluor 568 C5 maleimide on the N-terminal cysteine (the same paragraph also calls the peptides fluorescein-conjugated)
notes: cysteine cloned before Lys516, carries the fluorescent label; human ezrin C-ERMAD, Lys516-Leu586; also called fluorescently-labeled C-ERMAD; not shown: GST, N-terminal, cleaved
For the molecule B4, the equilibrium dissociation constant (Kd) in [13] was 8.6 ± 0.7 nM; in experiment [14] it was 3400 nM.

B5: Ezrin C-ERMAD (Cys-Lys516-Leu586), unlabeled (domain or fragment, human)
chain: CKRITEAEKNERVQRQLLTLSSELSQARDENKRTHNDIIHNENMRQGRDKYKTLRQIRQGNTKQRIDEFEAL
notes: cysteine cloned before Lys516 for fluorescent labeling; human ezrin C-ERMAD, Lys516-Leu586; also called unlabeled C-ERMAD; not shown: GST, N-terminal, cleaved
B5 yielded a dissociation constant Kd in [15] of 5300 nM. Moreover, in [16], the binding result is given as “binds”.

The values are drawn from PMC5426754, “Ezrin interacts with S100A4 via both its N- and C-terminal domains” (PLoS ONE, 2017).
